Experimental data reported in patent publication US20260028409A1 (Bristol-Myers Squibb, published 2026).

Experiments:
[1] = molecular target: T1, human C-C Motif Chemokine Receptor 8 (hCCR8) (human, UniProt P51685 1-355); test: FACS on hCCR8-overexpressing Raji cells, fluorescent secondary Ab
T1 construct: also called human CCR8
Protocol: Four of the 6 mAbs bound to the hCCR8-expressing cells with an EC₅₀ below 1 nM (FIG. 2A; see Table 1) whereas no nonspecific binding was observed on the parental Raji cells (FIG. 2B).
FACS was used to evaluate the binding specificity of Abs binding to CCR8. […] Unbound dye was washed away and cells were plated into 96-well round bottom plates at a concentration of 5×10⁵ cells per well in FACS staining buffer (PBS w/o Ca/Mg, 2 mM EDTA, 0.2% BSA). Serial dilutions of mAbs that bind to an epitope other than an N-terminal epitope of CCR8 were added, starting at a concentration of 20 nM, and incubated on ice for 30 min. Unbound Abs were washed off and a detection secondary Ab was added and incubated for 30 min on ice. Additional washes were performed and Ab binding affinities were determined by measuring the fluorescence intensities of the secondary Abs on a LSRFortessa X-20 cytometer (BD Biosciences).

[2] = molecular target: T2, BSA-conjugated peptide corresponding to the N-terminal 35 amino acid residues of hCCR8 (human, two sulfated tyrosine residues (positions not stated for this peptide); conjugated to bovine serum albumin (BSA)); test: ELISA, hybridoma supernatant on plate-coated BSA-conjugated sulfated N-terminal peptide (2 ug/ml)
T2 construct: Coated at 2 ug/ml on ELISA plates; also called BSA-conjugated CCR8 N-terminal peptide; sulfated N-terminal peptide of CCR8 conjugated to BSA
T2 sequence (peptide, as listed by the source): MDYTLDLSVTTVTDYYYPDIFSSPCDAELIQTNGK
Protocol: To broadly characterize the epitopes of confirmed CCR8-specific Abs, hybridoma culture supernatants were screened by ELISA to measure binding to hCCR8 N-terminal peptides. Briefly, a BSA-conjugated peptide corresponding to the N-terminal 35 amino acid residues of hCCR8 (SEQ ID NO: 74; 2 μg/ml) representing the properly sulfated hCCR8 N-terminus was coated onto high-binding 96-well plates (Corning, Corning, NY) overnight at 4° C. Plates were blocked with BSA and washed, then 100 μl of culture supernatant were added for 30-60 min on a plate shaker. After washing, an appropriate anti-Fc secondary Ab conjugated to horseradish peroxidase (HRP) was added and left for 30-60 min. The plates were developed with ABTS or HRP substrate (SurModics, Eden Prairie, MN), and absorbance was measured at 405 or 650 nm on a Sunrise microplate reader (TECAN; Mannedorf, Switzerland).

[3] = molecular target: T1, human C-C Motif Chemokine Receptor 8 …; test: cell-based or functional assay
[4] = molecular target: T1, human C-C Motif Chemokine Receptor 8 …; test: % receptor occupancy against 4A19 concentration, flow cytometry on CCR8^+ Tregs in healthy donor whole blood; the other of the two RO formats (direct/total or indirect/total)
Protocol: (§1) A head-to-head comparison of the two distinct RO assay formats was performed. Whole blood samples (180 μl) were pre-treated with various concentrations of the therapeutic mAb, mAb 4A19 (WO 2021/194942), mimicking different 4A19 dose treatment levels in subjects in the dose escalation arm of a Phase I clinical study (NCT04895709), and pre-incubated for 1 h at 37° C. Aliquots of the treated samples were transferred to 4° C. for periods of 24, 48 and 72h for specimen stability experiments.
(§2) After pre-incubation, tubes containing background samples were treated with a saturating concentration ([…]) of mAb 4A19, while other tubes (containing free or bound or FMO [fluorescence minus one] samples) were treated with PBS (equal volume as mAb 4A19) for 30 min at room temperature (RT). […]

[5] = molecular target: T1, human C-C Motif Chemokine Receptor 8 …; test: % receptor occupancy against 4A19 concentration, flow cytometry on CCR8^+ Tregs in healthy donor whole blood; one of the two RO formats (direct/total or indirect/total)
Protocol: as §1, §2

T1 sequence (P51685 whole entry): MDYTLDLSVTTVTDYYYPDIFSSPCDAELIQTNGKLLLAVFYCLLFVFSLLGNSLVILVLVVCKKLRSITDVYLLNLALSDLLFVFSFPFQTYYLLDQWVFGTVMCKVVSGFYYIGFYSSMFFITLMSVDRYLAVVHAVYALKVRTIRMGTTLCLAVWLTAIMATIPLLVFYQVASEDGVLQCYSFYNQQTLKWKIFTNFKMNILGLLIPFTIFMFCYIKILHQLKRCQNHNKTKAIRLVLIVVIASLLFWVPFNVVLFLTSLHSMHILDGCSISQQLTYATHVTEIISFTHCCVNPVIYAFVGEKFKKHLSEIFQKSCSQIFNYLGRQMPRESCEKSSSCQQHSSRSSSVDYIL

B1: 21C17 mIgG2a (antibody, V domains shown)
VH: VVQLQQSGPVLVKPGASVKMSCAASGYTFTDNYINWVKQRHGKSLEWIGVINPYNGLTAYDQNFKGKATLTVDKSSSTAYMALNSLTSEASAVYYCARRYGGTPVRYFDVWGTGTTVTVSS
VL: DVVLTQTPLTLSVTIGQPASISCKSSQSLLDSSGKTYLNWLLQRPGQSPKRLIYLVSKLDSGVPDRFSGSGSGTDFTLKFSRVEAEDLGVYYCWQATHFPWSFGGGSKLEVKR
notes: Used unlabeled or conjugated to BV421; also called mAb 21C17; 21C17-mG2a
[1]
  EC50: 0.0807 nM
[2]
  binding result: no binding

B2: 22B13 mIgG2a (antibody, V domains shown)
VH: B1 VH
VL: DIQMTQTASSLSASLGARVTISCRASQDISNYLNWYQQKPDGTFELLIYYTSRLHSGVPSRFSGSGSGTDYSLTITNLEQEDIATYFCQQGETLPWTFGGGTKLEIKR
notes: also called 22B13-mG2a
[1]
  EC50: 0.0815 nM
[2]
  binding result: no binding

B3: mAb 4A19 (antibody, human IgG1, kappa, V domains shown)
VH: QVQLVQSGAEVKKPGASVKVSCKASGYTFTDSEMHWVRQATGQGLEWMGAIQPETGGTAYNQKFKARVTMTRDTSISTAYMELSSLRSEDTAVYYCARRRRNFDYWGQGTLVTVSS
VL: DIVMTQTPLSLSVTPGQPASISCRSSQSLFHSSGNTYLHWYLQKPGQPPQLLIYKVSNRFSGVPDRFSGSGSGTDFTLKISRVEAEDVGVYYCSQSTHVPFTFGQGTKLEIKR
notes: Therapeutic anti-hCCR8 mAb of WO 2021/194942; also called therapeutic anti-CCR8 mAb 4A19; A419
[3]
  Maximum Depletion (%) of CCR8^+ Tregs Relative to KLH Isotype Control; Endometrial cancer: 69%
  Maximum Depletion (%) of CCR8^+ Tregs Relative to KLH Isotype Control; Head and neck squamous cell carcinoma: 25%
[4]
  EC50: 0.023 nM
[5]
  EC50: 0.022 nM

B4: 23A14 hIgG1 (antibody, V domains shown)
VH: QVQLVESGGGVVQPGRSLRLSCAVSGLTFSSYAMHWVRQAPGKGLEWVAVISYDGNKKYNADSVKGRFTISRDNSKNTLYLQMNSLRAEDTAVYYCARAEGKGDYWGQGTLVTVSS
VL: EIVLTQSPATLSLSPGERATLSCRASQSVSSYLVWYQQKPGQAPRLLIYDASNRATGIPARFSGSGSGTDFTLTISSLEPEDFAVYYCQQRSNWPRTFGQGTKVEIKR
notes: Tested as hIgG1; also called 23A14-hG1
[1]
  EC50: 0.112 nM
[2]
  binding result: no binding
